Positions count from the first letter of the chain named. Like-named read-outs stand apart in the source and are kept apart here. One block for each binder: values may come before it.
What was measured:
Human BTC-avitag-biotin [1] = biological target: T1, Human BTC-avitag-biotin (human, UniProt P35070 32-111, biotin on the avitag); assay: flow cytometry: inhibition of biotin-BTC binding to HKB11 cells over-expressing ErbB4; y axis Fluorescent Intensity
T1 construct: also called biotin-BTC; soluble human BTC-avitag-biotin
T1 sequence: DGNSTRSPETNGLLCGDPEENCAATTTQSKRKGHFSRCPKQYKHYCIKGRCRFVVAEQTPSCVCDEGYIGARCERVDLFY
Experimental: (§1) In order to assess potency of the Fabs and bispecific in neutralizing binding of BTC to its receptor Erb 1 or ErbB4, the following assay was performed. HKB11 over-expressing either ErbB1 or ErbB4 cells were plated 1×10⁵ cells/well. Cells were washed once with FACS buffer by spun down at 1200 rpm for 5 minutes and supernatant removed. Next, the Fab sample dilutions and BTC were prepared in FACS buffer. Human BTC-avitag-biotin was diluted to a fixed concentration of 15 nM. The test Fab samples were prepared at a starting concentration of 40 nM and titrated for 9 points at a serial dilution of 1:2. Both biotin-BTC and the test Fab samples are incubated for 30 minutes at room temperature. The pre-incubated samples were then added to the cell plate at 100 μl per well in duplicate and incubated for 1 hour on ice. The plate was then washed once in FACS buffer and spun down at 1200 rpm for 5 minutes and supernatant removed. After suspending the cell pellet with 100 μl/well of diluted secondary antibody streptavidin-Alexa Fluor488 (1:2000) in FACS buffer, the cells were then incubated for 60 min on ice. The cells were washed once with FACS buffer and re-suspended in 120 μl of FACS buffer for flow cytometric analysis.
(§2) Measurements were performed on Attune Flow Cytometry machine. Data were analysed using the Flow Jo software. The live cell populations analysed were gated in forward and side scattering (FSC-A/SSC-A dot plot). The interval gate was established on the control histogram, which was obtained with sample incubated in streptavidin-Alexa Fluor488 only, and subsequently, determined percent of positive binding events of cells carrying membrane-bound receptor ErbB1 or ErbB4 and biotin-BTC. The median of fluorescence intensity (MFI) value was also derived for the live cell population. MFI values were then used to calculate for percent inhibition of test sample and subsequently plotted in GraphPad Prism 7.03 using nonlinear regression (curve fit) model to generate IC50 value.

[2] = biological target: T2, membrane-bound human BTC on 293F-hBTC cells (human, UniProt P35070 32-111); assay: flow cytometry on 293F cells with membrane-bound human BTC; y axis % Pos Binding
T2 construct: the transfected construct is not described; also called membrane-anchored BTC
T2 sequence: T1 sequence
Experimental: After washing the cells, the cells were dissociated using Versene at 37° C. The cells were washed with FACS buffer and plated at 100 μl in a 96 well plate using cells at 1×10⁶ cells/ml. Then 100 μl of a serial dilution of antibodies starting at 50 nM was used. The cells were incubated, washed and then treated with the secondary anti-human Fab-FITC antibody. The antibodies only bound to the cells expressing BTC. After which the cells were washed and analyzed on the Attune Flow Cytometry. All data analysis was carried out using Flow Jo software.
In FIG. 6A, Flow cytometry was used to assess the binding of NVS11 to membrane-bound BTC using an anti-human Fab antibody for detection.

Human VEGF165 [3] = biological target: T3, Human VEGF165 (human, UniProt P15692 27-191); assay: SPR Biacore T200, anti-Fab capture, antigen as analyte
T3 construct: mature; biotinylated in the VEGFR2 ELISAs; also called human VEGF-A; VEGF-A

Human BTC [4] = biological target: T4, Human BTC (human, UniProt P35070 32-111); assay: as above
T4 construct: Soluble human BTC of the Biacore, ELISA, MSD and cell assays; also called human betacellulin; soluble human BTC
T4 sequence: T1 sequence

Human BTC-avitag-biotin [5] = biological target: T1, Human BTC-avitag-biotin; assay: flow cytometry: inhibition of biotin-BTC binding to HKB11 cells over-expressing ErbB1; y axis Fluorescent Intensity
Experimental: as §1, §2

Human VEGF165 [6] = biological target: T3, Human VEGF165; assay: competition ELISA: antibody pre-incubated with 400 pM VEGF-biotin, added to coated VEGFR2, streptavidin-HRP detection; y axis OD
Experimental: (§3) The plates were then washed 3 times using 1λTBST. The plates were blocked in 2% BSA diluent (0.1% Tween 20/0.1% TirtonX100) overnight. After blocking, the plates were washed 3 times using TB ST and then the sample mixture was added at 20 μl/well. The sample mixture consisted a final fixed concentration of VEGF-biotin (in-house) at 400 pM and a 15 point 1:2 serial dilution of the antibody starting at 20 nM. The sample mixture was pre-incubated for 1 hour prior to adding to the plate and then incubated for another hour at room temperature on the plate. Afterwards, the plate was washed 3 times using TBST and 20 μl/well of Streptavidin-HRP diluted at 1:5000 was added for an incubation time of 1 hour. The plates were washed 3 times in TBST and then 20 μl/well of TMB substrate was added. TMB is a chromogen that yields a blue color when oxidized. TMB was incubated for 10 minutes until the signal saturated in the no antibody samples, and then 10 μl/well of 2N sulfuric acid was added which then changes the blue color to yellow and this now has a maximum absorbance at 450 nm.

Human VEGF165 [7] = biological target: T3, Human VEGF165; assay: as above; remark: listed apart in the source
Experimental: as §3

Human BTC [8] = biological target: T4, Human BTC; assay: cell-based inhibition of BTC binding to ErbB4
Human BTC [9] = biological target: T4, Human BTC; assay: MSD-based inhibition of BTC binding to ErbB1
[10] = biological target: T2, membrane-bound human BTC on 293F-hBTC …; assay: flow cytometry, 293F cells with BTC against 293F
Human VEGF165 [11] = biological target: T3, Human VEGF165; assay: SPR Biacore T200, anti-Fab capture
[12] = biological target: T2, membrane-bound human BTC on 293F-hBTC …; assay: cell-based or functional assay
Human BTC [13] = biological target: T4, Human BTC; assay: cell-based or functional assay
Rat BTC = biological target: T5, Rat BTC (rat, UniProt Q9JJM4 32-111); assay: SPR (Biacore/ProteOn)
T5 sequence: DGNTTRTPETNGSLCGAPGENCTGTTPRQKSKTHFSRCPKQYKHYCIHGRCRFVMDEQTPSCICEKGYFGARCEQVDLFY

Rabbit BTC = biological target: T6, Rabbit BTC (rabbit, UniProt G1SJ89 32-111); assay: SPR (Biacore/ProteOn)
T6 sequence: T1 sequence with D1S, L14S, D17Y, E19G, A23T, T27V, S29P, V63I, I69T

Mouse BTC = biological target: T7, Mouse BTC (mouse, UniProt Q05928 32-111, limits assumed); assay: SPR (Biacore/ProteOn)
T7 sequence (looked up): T5 sequence with S31V, M55V, Q75R

Cyno BTC = biological target: T8, Cyno BTC (cynomolgus, UniProt A0A2K5X5E5 32-111); assay: SPR (Biacore/ProteOn)
T8 construct: also called cynomolgus BTC
T8 sequence: T1 sequence with E19D, A56T

Human BTC [14] = biological target: T4, Human BTC; assay: SPR (Biacore/ProteOn)
Human BTC [15] = biological target: T4, Human BTC; assay: MSD-based inhibition of BTC binding to ErbB4
Human BTC [16] = biological target: T4, Human BTC; assay: cell-based inhibition of BTC binding to ErbB1

T3 sequence (P15692 other isoform, or with tags, fused parts or gaps): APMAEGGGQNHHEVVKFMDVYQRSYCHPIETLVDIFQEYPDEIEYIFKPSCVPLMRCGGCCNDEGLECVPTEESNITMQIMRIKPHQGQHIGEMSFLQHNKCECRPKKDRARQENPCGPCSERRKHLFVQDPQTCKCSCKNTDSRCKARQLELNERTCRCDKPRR

IC50 (Human BTC-avitag-biotin [1]): 2.12 nM | EC50 [2]: 0.194 nM | Kd (Human VEGF165 [3]): 0.0065 nM | Kd (Human BTC [4]): 0.0018 nM | IC50 (Human BTC-avitag-biotin [5]): 1.82 nM
B1: NVS13 (bispecific antibody)
heavy: QVQLLESGGGLVQPGGSLRLSCAASGFTFSSYAMSWVRQAPGKGLEWVSGLGHVGYTTYTDSVKGRFTISRDNSKNTLYLQMNSLRAEDTAVYYCARDYLDFGYYFDVWGQGTLVTVSSASTKGPSVFPLAPSSKSTSGGTAALGCLVKDYFPEPVTVSWNSGALTSGVHTFPAVLQSSGLYSLSSVVTVPSSSLGTQTYICNVNHKPSNTKVDKRVEPKSCGSGGGGSGGGGSGGGEVQLVESGGGLVQPGGSLRLSCTASGFSLTDYYYMTWVRQAPGKGLEWVGFIDPDDDPYYATWAKGRFTISRDNSKNTLYLQMNSLRAEDTAVYYCAGGDHNSGWGLDIWGQGTLVTVSSASTKGPSVFPLAPSSKSTSGGTAALGCLVKDYFPEPVTVSWNSGALTSGVHTFPAVLQSSGLYSLSSVVTVPSSSLGTQTYICNVNHKPSNTKVDKRVEPKSC
light: SYELTQPLSVSVALGQTARITCSGDKIGKKYVHWYQQKPGQAPVLVIYDDSDRPSGIPERFSGSNSGNTATLTISRAQAGDEADYYCQAWDMQSVVFGGGTKLTVLGQPKAAPSVTLFPPSSEELQANKATLVCLISDFYPGAVTVAWKADSSPVKAGVETTTPSKQSNNKYAASSYLSLTPEQWKSHRSYSCQVTHEGSTVEKTVAPTECSGSGGGGSGGGGSGGGEIVMTQSPSTLSASVGDRVIITCQASEIIHSWLAWYQQKPGKAPKLLIYLASTLASGVPSRFSGSGSGAEFTLTISSLQPDDFATYYCQNVYLASTNGANFGQGTKLTVLKRTVAAPSVFIFPPSDEQLKSGTASVVCLLNNFYPREAKVQWKVDNALQSGNSQESVTEQDSKDSTYSLSSTLTLSKADYEKHKVYACEVTHQGLSSPVTKSFNRGEC
notes: Fab-Fab: NVS3 Fab, (GSGGG)3 linker, NVS8 Fab; also called anti-BTC/anti-VEGF bispecific Fab; bispecific Fab-Fab

IC50 (Human BTC-avitag-biotin [1]): 2.32 nM | Kd (Human VEGF165 [3]): 0.016 nM | Kd (Human BTC [4]): 0.002 nM | IC50 (Human VEGF165 [7]): 1.33 nM | IC50 (Human BTC-avitag-biotin [5]): 2.17 nM
B3: NVS14 (bispecific antibody)
heavy: QVQLLESGGGLVQPGGSLRLSCAASGFTFSRYWISWVRQAPGKGLEWVSYIDSTGTFINYADSVKGRFTISRDNSKNTLYLQMNSLRAEDTAVYYCARGGSLFDYWGQGTLVTVSSASTKGPSVFPLAPSSKSTSGGTAALGCLVKDYFPEPVTVSWNSGALTSGVHTFPAVLQSSGLYSLSSVVTVPSSSLGTQTYICNVNHKPSNTKVDKRVEPKSCGSGGGGSGGGGSGGGEVQLVESGGGLVQPGGSLRLSCTASGFSLTDYYYMTWVRQAPGKGLEWVGFIDPDDDPYYATWAKGRFTISRDNSKNTLYLQMNSLRAEDTAVYYCAGGDHNSGWGLDIWGQGTLVTVSSASTKGPSVFPLAPSSKSTSGGTAALGCLVKDYFPEPVTVSWNSGALTSGVHTFPAVLQSSGLYSLSSVVTVPSSSLGTQTYICNVNHKPSNTKVDKRVEPKSC
light: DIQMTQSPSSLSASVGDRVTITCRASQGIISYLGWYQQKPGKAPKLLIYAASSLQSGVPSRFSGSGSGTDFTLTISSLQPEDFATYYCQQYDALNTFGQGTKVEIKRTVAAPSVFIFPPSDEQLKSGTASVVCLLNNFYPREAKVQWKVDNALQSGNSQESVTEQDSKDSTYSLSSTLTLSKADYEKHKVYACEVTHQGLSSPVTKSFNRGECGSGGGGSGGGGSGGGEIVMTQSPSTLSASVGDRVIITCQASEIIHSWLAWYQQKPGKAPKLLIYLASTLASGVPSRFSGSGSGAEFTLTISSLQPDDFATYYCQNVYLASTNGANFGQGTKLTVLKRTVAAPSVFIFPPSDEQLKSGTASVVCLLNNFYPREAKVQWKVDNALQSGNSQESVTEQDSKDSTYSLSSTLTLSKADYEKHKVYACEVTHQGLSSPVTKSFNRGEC
notes: Fab-Fab: NVS4 Fab, (GSGGG)3 linker, NVS8 Fab; also called anti-BTC/anti-VEGF bispecific Fab; bispecific Fab-Fab

More lines, now with the values behind:

B2: NVS12 (bispecific antibody)
heavy: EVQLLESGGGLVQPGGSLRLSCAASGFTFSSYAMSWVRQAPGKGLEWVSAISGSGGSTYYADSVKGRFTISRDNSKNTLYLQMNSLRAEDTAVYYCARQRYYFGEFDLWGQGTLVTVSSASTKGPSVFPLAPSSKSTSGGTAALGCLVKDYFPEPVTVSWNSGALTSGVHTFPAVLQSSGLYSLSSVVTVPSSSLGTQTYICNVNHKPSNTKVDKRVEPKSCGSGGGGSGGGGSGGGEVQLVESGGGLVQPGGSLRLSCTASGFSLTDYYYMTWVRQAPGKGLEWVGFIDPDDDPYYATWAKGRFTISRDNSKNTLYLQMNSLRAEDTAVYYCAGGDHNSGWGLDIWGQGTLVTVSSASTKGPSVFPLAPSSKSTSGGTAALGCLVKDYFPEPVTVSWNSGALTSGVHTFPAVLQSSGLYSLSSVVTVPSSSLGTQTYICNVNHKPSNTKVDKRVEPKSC
light: SYELTQPPSVSVSPGQTASITCSGDKLGDKYAYWYQQKPGQSPVLVIYQDSKRPSGIPERFSGSNSGNTATLTISGTQAEDEADYYCQAFDYLYSLGVFGGGTKLTVLGQPKAAPSVTLFPPSSEELQANKATLVCLISDFYPGAVTVAWKADSSPVKAGVETTTPSKQSNNKYAASSYLSLTPEQWKSHRSYSCQVTHEGSTVEKTVAPTECSGSGGGGSGGGGSGGGEIVMTQSPSTLSASVGDRVIITCQASEIIHSWLAWYQQKPGKAPKLLIYLASTLASGVPSRFSGSGSGAEFTLTISSLQPDDFATYYCQNVYLASTNGANFGQGTKLTVLKRTVAAPSVFIFPPSDEQLKSGTASVVCLLNNFYPREAKVQWKVDNALQSGNSQESVTEQDSKDSTYSLSSTLTLSKADYEKHKVYACEVTHQGLSSPVTKSFNRGEC
notes: Fab-Fab: NVS2 Fab, (GSGGG)3 linker, NVS8 Fab; also called anti-BTC/anti-VEGF bispecific Fab; bispecific Fab-Fab
IC50 (Human BTC-avitag-biotin [1]): 2.19 nM | EC50 [2]: 0.137 nM | Kd (Human VEGF165 [3]): 0.017 nM | Kd (Human BTC [4]): 0.006 nM | IC50 (Human VEGF165 [6]): 1.2 nM | IC50 (Human BTC-avitag-biotin [5]): 1.6 nM

B4: NVS2 (Fab, V domains shown)
VH: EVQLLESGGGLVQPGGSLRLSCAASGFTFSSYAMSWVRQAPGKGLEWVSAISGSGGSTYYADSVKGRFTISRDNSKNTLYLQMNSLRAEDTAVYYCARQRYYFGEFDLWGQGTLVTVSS
VL: SYELTQPPSVSVSPGQTASITCSGDKLGDKYAYWYQQKPGQSPVLVIYQDSKRPSGIPERFSGSNSGNTATLTISGTQAEDEADYYCQAFDYLYSLGVFGGGTKLTVLG
notes: also called Fab NVS2; anti-BTC Fab
Cell-based binding inhibition BTC/ErbB4 (Human BTC [8]): > 90% | MSD-based binding inhibition BTC/ErbB1 (Human BTC [9]): > 90% | IC50 (Human BTC-avitag-biotin [1]): 1.83 nM | Binding to membrane-anchored BTC (median, X above 293F) [10]: > 10 X above 293F | binding result (Human VEGF165 [11]): no binding | Neutralization of juxtacrine signaling [12]: 90% | A431 pERK (IC50 in nM) (Human BTC [13]): 0.37 nM | ADR/Res pErbB3 (IC50 in nM) (Human BTC [13]): 6.3 nM | inhibition (Human BTC [13]): 99.7% | Kd (Rat BTC): 0.021 nM | Kd (Rabbit BTC): 0.005 nM | Kd (Mouse BTC): 0.009 nM | Kd (Cyno BTC): 0.016 nM | Kd (Human BTC [14]): 0.014 nM | EC50 [2]: 0.256 nM | Kd (Human BTC [4]): 0.0047 nM | MSD-based binding inhibition BTC/ErbB4 (Human BTC [15]): > 90% | Cell-based binding inhibition BTC/ErbB1 (Human BTC [16]): > 90% | IC50 (Human BTC-avitag-biotin [5]): 1.73 nM
